Tests used:
[1] = biological target: αvβ3 and αvβ5 integrins together on human cells (M21, A375S2, HUVEC) (human) (UniProt P06756)
[2] = biological target: αVβ3 integrin on human cells (human) (UniProt P06756); test: binding of radiolabelled LM609 to A375S2 cells, Bmax, n = 2
[3] = biological target: αVβ3 integrin on human cells (human) (UniProt P06756)
[4] = biological target: αVβ3 integrin on human cells (human) (UniProt P06756); remark: listed apart in the source
[5] = biological target: αVβ5 integrin on human cells (human) (UniProt P06756)
[6] = biological target: αVβ5 integrin on human cells (human) (UniProt P06756); test: binding of radiolabelled P1F6 to HT-29 cells, Bmax, n = 1
[7] = biological target: αVβ5 integrin on human cells (human) (UniProt P06756); test: binding of radiolabelled P1F6 to M21 cells, Bmax, n = 2
[8] = biological target: αVβ5 integrin on human cells (human) (UniProt P06756); test: binding of radiolabelled P1F6 to A375S2 cells, Bmax, n = 4
[9] = biological target: αVβ5 integrin on human cells (human) (UniProt P06756); remark: listed apart in the source
[10] = biological target: human αVβ3 integrin, purified (human) (UniProt P06756); test: saturation binding on αvβ3 coated plate (ELISA), non-linear regression, n = 6
[11] = biological target: human αVβ3 integrin, purified (human) (UniProt P06756); test: ELISA on αVβ3-coated plates, fifty percent maximal binding

Human IgG (polyclonal serum or antibody)
Adhesion (%) of HUVEC to vitronectin (% of adhesion without antibody) [1]: 96.3

LM609 (antibody)
Receptors per cell (receptors per cell) [2]: 300000 | Adhesion (%) of HUVEC to fibrin (% of adhesion without antibody) [3]: 48.1 | Adhesion (%) of HUVEC to fibrinogen (% of adhesion without antibody) [3]: 14.3 | Adhesion (%) of HUVEC to gelatin (% of adhesion without antibody) [3]: 36.5 | Adhesion (%) of HUVEC to vitronectin (% of adhesion without antibody) [3]: 26.3 | Adhesion (%) of A375S.2 cells to fibrin (% of adhesion without antibody) [4]: 50 | Adhesion (%) of A375S.2 cells to fibrinogen (% of adhesion without antibody) [4]: 14 | Adhesion (%) of A375S.2 cells to gelatin (% of adhesion without antibody) [4]: 25.2 | Adhesion (%) of A375S.2 cells to vitronectin (% of adhesion without antibody) [4]: 42.1

P1F6 (antibody)
Adhesion (%) of HUVEC to vitronectin (% of adhesion without antibody) [5]: 39.8 | Receptors per cell (receptors per cell) [6]: 73000 | Receptors per cell (receptors per cell) [7]: 44000 | Receptors per cell (receptors per cell) [8]: 70000 | Adhesion (%) of A375S.2 cells to vitronectin (% of adhesion without antibody) [9]: 28.5

ReoPro (Fab)
Kd [10]: 0.25 nM

c7E3 IgG (antibody)
EC50 [11]: 0.07 µg/mL

Source: patent US20030040044A1
